These results are taken from patent publication US20220281990A1 (MERRIMACK PHARMACEUTICALS, published 2022).

Substitutions are numbered along the chain they refer to.

The labels stand for the following.
T1: recombinant human TNFR2-hFc protein (human, UniProt P20333 23-257)
T1 construct: also called hTNFR2-Fc; human TNFR2-Fc; not shown: human Fc
T1 sequence: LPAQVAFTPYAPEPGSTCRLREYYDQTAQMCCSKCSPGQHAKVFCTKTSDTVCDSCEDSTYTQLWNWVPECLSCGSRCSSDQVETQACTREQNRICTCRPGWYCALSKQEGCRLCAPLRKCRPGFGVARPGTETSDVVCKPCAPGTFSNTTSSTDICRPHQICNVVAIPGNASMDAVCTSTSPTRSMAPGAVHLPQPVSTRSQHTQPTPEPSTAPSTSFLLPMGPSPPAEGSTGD

T2: Human TNFR2 expressed on cells (CHO-hTNFR2 cells) (human, UniProt P20333 23-461)
T2 construct: also called CHO cells overexpressing human TNFR2; human TNFR2 reporter cells (HEK293)
T2 sequence: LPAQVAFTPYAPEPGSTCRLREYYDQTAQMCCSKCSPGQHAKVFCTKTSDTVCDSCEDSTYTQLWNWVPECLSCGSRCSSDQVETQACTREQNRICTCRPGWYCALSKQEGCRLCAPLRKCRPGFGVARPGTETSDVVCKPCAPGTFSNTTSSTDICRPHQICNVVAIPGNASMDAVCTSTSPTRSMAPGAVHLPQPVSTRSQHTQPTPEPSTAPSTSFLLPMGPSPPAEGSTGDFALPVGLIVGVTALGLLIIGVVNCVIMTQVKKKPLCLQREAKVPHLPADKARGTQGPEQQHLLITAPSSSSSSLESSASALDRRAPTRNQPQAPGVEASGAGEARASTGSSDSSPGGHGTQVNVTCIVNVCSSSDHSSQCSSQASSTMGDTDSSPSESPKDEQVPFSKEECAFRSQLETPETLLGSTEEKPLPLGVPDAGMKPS

B1: UC2.3.3 (S4-2 1D10-1G9-1F10) scFv (scFv)
scFv: QVQLLESGGGLVQPGGSLRLSCAASGFTFSTYAMSWIRQAPGKGLEWVSIISDGGDATVYADSVKGRFTISRDNNRNTLYLQMNSLRAEDTAVYYCARDGTSAAAFDSWGQGTLVTVSSASSGGSTSGSGKPGSGEGSSGSARDIQMTQSPSSLSASVGDRVTITCQASQDITNFLNWYQQKPGKAPKLLIYDASTLQTGVPSRFSGSGSGTDFTFTISSLQPEDIATYYCQQSDSYPITFGQGTKVEIKR
notes: also called UC2.3.3 (monomer)
B2: UC2.3.12 (S4-2 1D10-1G9-1H1) scFv (scFv)
scFv: B1 scFv with G16D, D213N
B3: UC2.3.15 (S4-2 1D10-1G9-1H12) scFv (scFv)
scFv: B1 scFv with A24V, N75S, R76K, C96W, S121N
B4: UC2.3.10 (S4-2 1D10-1G9-1G2) scFv (scFv)
scFv: B1 scFv with C22Y, N75S, R76K, G100R
B5: UC2.3.14 (S4-2 1D10-1G9-1H11) scFv (scFv)
scFv: B1 scFv with C22Y, G42R, N75S, R76K, G100R
B6: UC2.3.13 (S4-2 1D10-1G9-1G11) scFv (scFv)
scFv: B1 scFv with G8V, A24V, A57V, N75S, R76K, G100R, T116S, V117D, A142S, T215N
B7: UC2.3.11 (S4-2 1D10-1G9-1G3) scFv (scFv)
scFv: B1 scFv with A24V, N75S, R76K, C96W, S121N
B8: UC2.3.9 (S4-2 1D10-1G9-1F12) scFv (scFv)
scFv: B1 scFv with Q167H
B9: UC1.3 (S4-2 1B5-1B3) scFv (scFv)
scFv: QVQLLESGGGLVQPGGSLRLSCAASGFSFTSYAMTWVRQAPGKGLEWVSGISGDGAATFYADSVKGRFTISRDNSKNTLYLQMNSLRAEDTAVYYCARQSQYVGGFDYWGQGTLVTVSSASSGGSTSGSGKPDSGEGSSGSARQSVLTQPPSVSGAPGQRVTISCTGSSSNFGAGYGVHWYQQLPGTAPKLLIHGNTNRPSGVPDRFSGFKSGTSASLAITGLQAEDEADYYCQSYDSSLSGWVFGGGTKLTVLG
B10: UC1.2 (S4-2 1B5-1A5) scFv (scFv)
scFv: B9 scFv with D54G
B11: UC6 (9-1A6) scFv (scFv)
scFv: QVQLVQSGAEVKKPGSSVKVSCKASGDSFNNFGISWVRQAPGQGLEWMGGIVPVLGIATYAQKFQGRVTITADESTSTAYMELSSLRSEDTAVYYCARGSAWYDGSFQYWGQGTLVTVSSASSGGSTSGSGKPGSGEGSSGSAREIVLTQSPGTLSLSPGERATLSCRASQSVSSTFLAWYQQKPGQAPRLLIYDASTRATGIPDRFSGSDSGTDFTLTISRLEPEDFAVYYCQQYDSWPFTFGQGTKVEIKR
notes: Soluble scFv
B12: UC5 (8-2A10) scFv (scFv)
scFv: QVQLLESGGGLVQPGGSLRLSCAASGFTFNTYAMTWVRQAPGKGLEWVSAISDSGGDTFYADSVKGRFTISRDNSKNTLYLQMNSLRAEDTAVYYCARDGTYAARFDYWGQGTLVTVSSASSGGSTSGSGKPGSGEGSSGSARDIQMTQSPSSLSASVGDRVTITCQASQDISNYLNWYQQKPGKAPKLLIYDASTLETGVPSRFSGSGSGTDFTFTISSLQPEDIATYYCQQSDSFPITFGQGTKVEIKR
notes: Soluble scFv
B13: UC7 (9-1B5) scFv (scFv)
scFv: QVQLVQSGAEVKKPGSSVKVSCKASGDTFSSYGVSWVRQAPGQGLEWMGRIVPVFGIANYAQKFQGRVTITADESTSTAYMELSSLRSEDTAVYYCARQSPYVTYSSYYFDYWGQGTLVTVSSASSGGSTSGSGKPGSGEGSSGSAREIVLTQSPGTLSLSPGERATLSCRASQSVSNNFLAWYQQKPGQAPRLLIYDASTRATGIPDRFSGSGSGTDFTLTISRLEPEDFAVYYCQQYGSWPITFGQGTKVEIKR
notes: Soluble scFv
B14: UC 8 (9-2A4) scFv (scFv)
scFv: QVQLVQSGAEVKKPGSSVKVSCKASGDTFSNYGFSWVRQAPGQGLEWMGGIVPVFGIATYAQKFQGRVTITADESTSTAYMELSSLRSEDTAVYYCARDYSYYPDDPRYFEYWGQGTLVTVSSASSGGSTSGSGKPGSGEGSSGSAREIVLTQSPGTLSLSPGERATLSCRASQSVSSTFLAWYQQKPGQAPRLLIYAASSRATGIPDRFSGSGSGTDFTLTISRLEPEDFAVYYCQQYGSWPLTFGQGTKVEIKR
notes: Soluble scFv
B15: UC3 (S4-2 1E5) scFv (scFv)
scFv: QVQLLESGGGLVQPGGSLRLSCAASGFSFSSYAMSWVRQAPGKGLEWVSGISAGGGETFYADSVKGRFTISRDNSKNTLYLQMNSLRAEDTAVYYCARVHPISYGFDIWGQGTLVTVSSASSGGSTSGSGKPGSGEGSSGSARDIQMTQSPSSLSASVGDRVTITCQASQDIKKYLNWYQQKPGKAPKLLIYDASTLQTGVPSRFSGSGSGTDFTFTISSLQPEDIATYYCQQSDNTPVTFGQGTKVEIKR
notes: Soluble scFv
B16: UC2.3.3 scFv (dimer) (scFv)
scFv: B1 scFv
notes: also called UC2.3.3 (dimer)
B17: UC2 (S4-2 1D10) scFv (scFv)
scFv: B1 scFv with I37V, V59F, N75S, R76K
B18: UC1 (S4-2 1B5) scFv (scFv)
scFv: B9 scFv with D54G, D133G, F172I, H194Y

In the first experiment the target is T1, recombinant human TNFR2-hFc protein. As to the kind of experiment: flow cytometry; TNFR2-Fc binding to scFv displayed on yeast (FIGS. 6A-6C).
For the molecule B1, the “fold higher affinity (vs parental scFv)” value was found to be 10 fold.

Turning to B2, the “fold higher affinity (vs parental scFv)” value was 10 fold.

For the molecule B3, the “fold higher affinity (vs parental scFv)” value came to 10 fold.

Consider B4, for which the “fold higher affinity (vs parental scFv)” value worked out at 10 fold.

In the case of B5, the “fold higher affinity (vs parental scFv)” value amounted to 10 fold.

Turning to B6, the “fold higher affinity (vs parental scFv)” value was 10 fold.

In the case of B7, the “fold higher affinity (vs parental scFv)” value worked out at 10 fold.

As to B8, the “fold higher affinity (vs parental scFv)” value is 10 fold.

Regarding B9, the “fold higher affinity (vs parental scFv)” value is 10 fold.

With B10, the “fold higher affinity (vs parental scFv)” value amounted to 10 fold.

Another experiment addresses T2, Human TNFR2 expressed on cells …. As to the kind of experiment: flow cytometry; soluble scFv inhibiting TNF (1 nM) binding to CHO-hTNFR2 cells (FIG. 3).
A word on the IC50: it is the concentration needed to halve the response being measured. In turn, B11 displayed an IC50 of 69.7 nM.

With B12, the IC50 is 746 nM.

Take B13: the IC50 was determined as 25.6 nM. Against the preceding molecule, the IC50 is about 29-fold lower.

The molecule B14 yielded an IC50 of 21.5 nM.

In turn, B15 came in with an IC50 of 110 nM.

The target is the same in another experiment. Put plainly: flow cytometry; soluble scFv inhibiting TNF (1 nM) binding to CHO-hTNFR2 cells (FIG. 7). A general note: A flow cytometer gives signals particle by particle.
Turning to B1, the IC50 is 3.94 nM.

For the molecule B16, the IC50 is 1.72 nM. Against the preceding molecule, the IC50 is about 2.3-fold lower.

The next experiment deals with T1, recombinant human TNFR2-hFc protein. As to the kind of experiment: flow cytometry; hTNFR2-Fc binding to scFv displayed on yeast; one site binding fit (FIG. 4).
A word on the Kd: it is the free concentration of one partner at which half of the binding sites on the other are occupied at equilibrium, for simple one-to-one binding. In the case of B17, the Kd worked out at 42.8 nM.

B18: the Kd worked out at 18.1 nM.

The target is the same in a further experiment. As to the kind of experiment: flow cytometry; hTNFR2-Fc binding to scFv displayed on yeast; one site binding fit (FIG. 6A).
Turning to B9, the Kd is 0.64 nM.

For the molecule B10, the Kd amounted to 0.57 nM.

The next experiment has the same target. Put plainly: flow cytometry; hTNFR2-Fc binding to scFv displayed on yeast; one site binding fit (FIG. 6B).
Consider B1, for which the Kd came out at 1.35 nM.

For B2, the Kd was found to be 1.98 nM.

Turning to B4, the Kd came out at 0.63 nM.

For the molecule B7, the Kd worked out at 1.52 nM.

Turning to B8, the Kd was 1.79 nM.

Another experiment shares this target. Put plainly: flow cytometry; hTNFR2-Fc binding to scFv displayed on yeast; one site binding fit (FIG. 6C).
For the molecule B3, the Kd is 0.78 nM.

For B5, the Kd is 0.65 nM.

On to B6, for which the Kd turned out to be 0.87 nM.

Another experiment has as its target T2, Human TNFR2 expressed on cells …. Put plainly: flow cytometry; soluble scFv inhibiting TNF (1 nM) binding to CHO-hTNFR2 cells (FIGS. 5A-5B).
As for B17, the IC50 amounted to 39.6 nM.

In turn, B18 returned an IC50 of 4.44 nM.

For a further experiment the target is unchanged. As to the kind of experiment: flow cytometry, titration of soluble scFv (up to 300 nM) on CHO-hTNFR2 cells; one site binding non-linear fit.
For B11, the Kd is 42 nM.

Turning to B12, the Kd came to 14.5 nM.

Molecule B13 came in with a Kd of 48.9 nM.

In the case of B17, the Kd was 14.4 nM.

Molecule B14 gave a Kd of 13.4 nM.

B18 showed a Kd of 8.17 nM.

In turn, B15 came in with a dissociation constant Kd of 19.3 nM.
